Target: WRN helicase core (531-950), lacking the WH domain (Homo sapiens, UniProt Q14191 531-950)
Assay: HDX-MS; protein:ssDNA 1:2.5, no nucleotide analogue added; protection of D2 hairpin/motif IV peptide only after 4 h labelling; HDX-MS: WRN stock 16.66 uM in 15 mM Hepes, 150 mM NaCl, pH 7.3; 2 min equilibration with ligand, then 16-fold dilution into deuterated buffer, room temperature, 10 s to 4 h
Conditions: protein: recombinant; tags: N-terminal His-Zbasic tag, TEV-cleaved; single strand

Chain of WRN helicase core (531-950), lacking the WH domain (Q14191 531-950): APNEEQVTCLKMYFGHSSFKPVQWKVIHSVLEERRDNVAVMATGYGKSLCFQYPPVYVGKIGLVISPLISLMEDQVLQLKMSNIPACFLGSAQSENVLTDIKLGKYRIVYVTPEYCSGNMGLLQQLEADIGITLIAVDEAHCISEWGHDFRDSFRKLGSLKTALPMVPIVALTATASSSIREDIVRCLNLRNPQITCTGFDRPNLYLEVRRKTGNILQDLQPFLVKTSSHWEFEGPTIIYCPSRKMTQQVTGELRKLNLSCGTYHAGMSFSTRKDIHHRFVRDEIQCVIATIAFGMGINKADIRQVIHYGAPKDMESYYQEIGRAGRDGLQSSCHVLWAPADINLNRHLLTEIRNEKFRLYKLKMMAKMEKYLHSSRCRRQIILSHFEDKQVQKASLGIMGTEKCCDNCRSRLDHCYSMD

**Q.** Does CCAGGTCGATAGGTTCGAATTGGTT (ssDNA) [25-nt ssDNA] bind?
**A.** binds
